# Residue numbers refer to the chain shown, from its start.
# T1: Spike (S) protein of live MERS-CoV EMC/2012 (wild type virus) (MERS-CoV, UniProt K9N5Q8 18-1353)
# T1 sequence: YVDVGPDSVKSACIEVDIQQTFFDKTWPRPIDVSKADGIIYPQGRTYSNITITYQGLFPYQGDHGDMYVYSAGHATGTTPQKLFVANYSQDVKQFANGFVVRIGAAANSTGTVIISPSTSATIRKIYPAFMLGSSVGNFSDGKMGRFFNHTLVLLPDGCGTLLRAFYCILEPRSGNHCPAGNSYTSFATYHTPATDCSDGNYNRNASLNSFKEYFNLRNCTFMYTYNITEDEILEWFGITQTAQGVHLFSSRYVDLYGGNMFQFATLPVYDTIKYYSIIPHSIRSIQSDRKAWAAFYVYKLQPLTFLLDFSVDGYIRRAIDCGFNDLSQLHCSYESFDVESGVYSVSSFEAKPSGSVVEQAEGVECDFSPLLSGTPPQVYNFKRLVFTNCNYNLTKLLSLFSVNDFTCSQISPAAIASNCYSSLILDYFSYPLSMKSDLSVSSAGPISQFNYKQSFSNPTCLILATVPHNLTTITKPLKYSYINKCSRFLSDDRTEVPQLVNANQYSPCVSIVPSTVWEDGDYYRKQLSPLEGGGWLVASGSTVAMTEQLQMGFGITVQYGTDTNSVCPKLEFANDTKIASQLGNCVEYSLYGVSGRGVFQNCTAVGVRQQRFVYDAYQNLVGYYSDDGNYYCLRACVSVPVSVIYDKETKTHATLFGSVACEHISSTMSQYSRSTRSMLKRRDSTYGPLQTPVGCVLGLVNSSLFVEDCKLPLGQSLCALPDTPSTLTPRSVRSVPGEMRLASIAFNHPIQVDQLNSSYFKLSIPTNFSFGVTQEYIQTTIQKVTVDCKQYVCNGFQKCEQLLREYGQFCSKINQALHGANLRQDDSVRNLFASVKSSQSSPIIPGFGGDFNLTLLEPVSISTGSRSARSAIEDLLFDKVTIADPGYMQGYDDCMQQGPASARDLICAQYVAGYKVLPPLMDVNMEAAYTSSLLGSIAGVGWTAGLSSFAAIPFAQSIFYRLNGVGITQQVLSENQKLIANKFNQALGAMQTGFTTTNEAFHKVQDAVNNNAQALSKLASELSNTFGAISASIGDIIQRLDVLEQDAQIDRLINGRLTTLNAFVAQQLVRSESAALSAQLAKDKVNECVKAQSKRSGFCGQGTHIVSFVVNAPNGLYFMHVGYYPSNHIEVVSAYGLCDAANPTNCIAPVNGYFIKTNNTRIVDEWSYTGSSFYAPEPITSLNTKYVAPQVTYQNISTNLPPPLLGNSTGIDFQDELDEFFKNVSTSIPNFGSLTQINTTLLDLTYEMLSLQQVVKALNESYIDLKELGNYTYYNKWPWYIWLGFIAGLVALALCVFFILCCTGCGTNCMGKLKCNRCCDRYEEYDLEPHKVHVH
# B1: 1E9 scFvFc (scFv, V domains shown)
# VH: QVQLVQSGGGVVQPGRSLRLSCVASEFTFNTYGMHWVRQAPGKGLEWVAAISYDGTKKFYADSLKGRFTISRDNSKNTLYLQMNSLRSEDTAVYYCARSGDSDAFDIWGQGTMVTVSS
# VL: SYELTQPPSVSVSPGQTATITCSGDELGDKFAFWYQQKPGQSPVLVIYQDSKRPSGIPERFSGSNSGNTATLTISGTQALDEADYYCQAWDSNSYVFGTGTKVTVL
# B2: 3B12 scFvFc (scFv, V domains shown)
# VH: QVQLVQSGAEVKKPGSSVKVSCKASGGTFSSYAISWVRQAPGQGLEWMGGIIPIFGTANYAQKFQGRVTITADKSTSTAYMELSSLRSEDTAVYYCARASYCSTTSCASGAFDIWGQGTLVTVSS
# VL: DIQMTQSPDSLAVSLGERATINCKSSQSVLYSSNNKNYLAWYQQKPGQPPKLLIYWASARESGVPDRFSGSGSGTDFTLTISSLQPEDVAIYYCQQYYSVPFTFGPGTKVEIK
# B3: 3B11 IgG1 (antibody, V domains shown)
# VH: B2 VH with A99V, S100G, T104S, A108H, S109I, L120T
# VL: ETTLTQSPGTLSLSPGERATLSCRASQSVSSSIAWYQQKPGQAPRLLMFDSSTRATGIPDRFSGSGSGTDFTLNISSLEPEDFAVYYCQQYSSSPYTFGQGTKLEIK
# B4: 3A1 scFvFc (scFv, V domains shown)
# VH: QVQLVQSGAEVKKPGSSVKVSCKASGGTFSSYAVSWVRQAPGQGLEWVGRIIPIFGKANYAQKFQGRVTITADKSTSTAYMELSSLRPEDTAVYYCARDQGISANFKDAFDIWGQGTTVTVSS
# VL: ETTLTQSPATLSVSPGERATLSCRASESVGSNLAWYQQKPGQAPSLLIYGASTRATGIPDRFSGSGSGTDFTLTISSLQSEDFAAYYCQQYNNWPLTFGPGTKVEIK
# B5: 3A1 IgG1 (antibody, V domains shown)
# VH: B4 VH
# VL: B4 VL
# B6: 1F8 scFvFc (scFv, V domains shown)
# VH: EVQLVQSGAEVKEPGSSVKVSCKASGGTFGSYAINWVRQAPGQRLEWMGWIDAANGNTKYSQKFQGRVTITGDTSASTAYMELSSLRSEDTAVYYCARDRWMTTRAFDIWGQGTMVTVSS
# VL: QPVLTQPPSASGTPGQRVTISCSGSSSNIGSNYVFWYQQLPGMAPKLLISRNNQRPSGVPDRFSGSKSGTSASLAISGPQSEDEADYYCAAWDDSLRGPVFGGGTRVTVL
# B7: 1F8 IgG1 (antibody, V domains shown)
# VH: B6 VH
# VL: B6 VL
# Molecular target: T1, Spike (S) protein of live MERS-CoV …
# Assay: cell-based or functional assay
row,Binder,"IC50 (PRNT50, live wt. virus)"
1,B1,3.21 µg/mL
2,B2,1.25 µg/mL
3,B3,3.5 µg/mL
4,B4,1.46 µg/mL
5,B5,4.5 µg/mL
6,B6,6.27 µg/mL
7,B7,4.05 µg/mL
